Values quoted from earlier work, collected in patent EP4803095A2, “FORMULATIONS OF GLUCAGON-LIKE-PEPTIDE-2 (GLP-2) ANALOGUES” (Zealand Pharma A/S, priority 2018, dated 2026).
Like-named read-outs stand apart in the source and are kept apart here.

Conditions: for half-life in humans: background art

| Substance | half-life (in vivo) | half-life in humans | half-life in humans (listed as native GLP-2) |
| --- | --- | --- | --- |
| teduglutide: GLP-2 analogue containing Gly substitution at position 2 | about two | – | – |
| Hy-His-Ala-Asp-Gly-Ser-Phe-Ser-Asp-Glu-Met-Asn-Thr-Ile-Leu-Asp-Asn-Leu-Ala-Ala-Arg-Asp-Phe-Ile-Asn-Trp-Leu-Ile-Gln-Thr-Lys-Ile-Thr-Asp-OH [GLP-2 [1-33]] | – | around 7 minutes | seven |
| GLP-2 [3-33]: truncated GLP-2 [3-33] (DGSFSDEMNTILDNLAARDFINWLIQTKITD; Glucagon-like peptide 2; UniProt P01275 148-178, looked up, fragment) | – | ~27 min | – |
